The source of these data is article PMC4439037, “Distinctive Structure of the EphA3/Ephrin-A5 Complex Reveals a Dual Mode of Eph Receptor Interaction for Ephrin-A5” (PLoS ONE, 2015).

To fix the notation:
B1: human ephrin-A5 receptor-binding domain (domain or fragment)
chain: KAVADRYAVYWNSSNPRFQRGDYHIDVCINDYLDVFCPHYEDSVPEDKTERYVLYMVNFDGYSACDHTSKGFKRWECNRPHSPNGPLKFSEKFQLFTPFSLGFEFRPGREYFYISSAIPDNGRRSCLKLKVFVRPTNSCMK
modifications: deglycosylated with PNGase F
notes: also called ephrin-A5 ligand
B2: human EphA3 ligand-binding domain (domain or fragment)
chain: EVNLLDSKTIQGELGWISYPSHGWEEISGVDEHYTPIRTYQVCNVMDHSQNNWLRTNWVPRNSAQKIYVELKFTLRDCNSIPLVLGTCKETFNLYYMESDDDHGVKFREHQFTKIDTIAADESFTQMDLGDRILKLNTEIREVGPVNKKGFYLAFQDVGACVALVSVRVYFK
notes: also called EphA3 LBD; EphA3 receptor; not shown: GST, N-terminal, cleaved; 10xHis, N-terminal, cleaved

The target of assay [1] is B2. The assay can be described thus: ITC. Conditions: both partners purified.
Assay [2] deals with B1. Briefly: ITC. The following applies: both partners purified.

Regarding B1, in assay [1], the Kd was determined as 9 nM.

B2: in assay [2], the dH is -2.15 kcal/mol.

Usually Kd stands for the free concentration of one partner at which half of the binding sites on the other are occupied at equilibrium, for simple one-to-one binding. Read a high Kd as weaker binding.
